Numbering of substitutions follows the chain as printed. One block for each binder: values may come before it.
Tests used:
human serum albumin [1] = target: T1, human serum albumin (human, UniProt P02768 25-609); test: phage display panning on HSA and screening
T1 construct: also called HSA; HAS

human serum albumin [2] = target: T1, human serum albumin; test: screening of the unselected immunized library on HSA

- binding result (human serum albumin [2]): binds
B9: SEQ ID NO 59 (VNAR)
VNAR: ARVDQTPRTATKETGESLTINCVLADTSYPLYSTYWYRKNPGSSNKEQISISGRYVESVNKGTKSFSLRIKDLTVADSATYICRASDIAMGTYDGAGTALTVN
notes: clone name not tied to this number; one of the 13 entries may be a consensus

- binding result (human serum albumin [2]): binds
B10: SEQ ID NO 61 (VNAR)
VNAR: ARVDQTPRTATKETGESLTINCVLTDTSYPLYSTYWYRKNPGSSNKEQISISGRYVESVNKGTKSFSLRIKDLTVADSGTYICRSITTHSWSGDGAGTALTVN
notes: as for B9

- binding result (human serum albumin [2]): binds
B11: SEQ ID NO 62 (other)
chain: IRVDQTPRTATKETGGSLTINCVLTDTSYPLYSTYWYRKNPGSSNKEQISISGRYVESVNKGTKSFSLRIKDLTVADSATYICRALSTYMEAGDGAGTVLTVN
notes: as for B9

- binding result (human serum albumin [2]): binds
B12: SEQ ID NO 63 (VNAR)
VNAR: ASVNQTPRTATKETGESLTINCVLTDTSYPLYSTYWYRKNPGSSNKEQIPISGRYVESVNKGTKSFSLRIKDLTVADSATYICRAMDTSAGVVDGAGTVLTVN
notes: as for B9

- binding result (human serum albumin [2]): binds
B13: SEQ ID NO 52 (VNAR)
VNAR: IRVDQTPRTATKETGESLTINCVLTGTVCGMYSTSWSRKNPGRADWERISIGGRYVESVNKGAKSFSLRIRDLTVADSATYCCSAESPPICTSQGIAAVTKYYDGAGTVLTVN
notes: as for B9

- binding result (human serum albumin [2]): binds
B14: SEQ ID NO 54 (VNAR)
VNAR: ARVDQTPRTATKETGESLTINCVLTDTSYPLYSTYWYRKNPGSSNKEQISISGRYVESVNKGTKSFSLRIKDLTVADSATYICRAYTIHIKLEQHGAGTVLTVN
notes: as for B9

- binding result (human serum albumin [2]): binds
B15: SEQ ID NO 57 (VNAR)
VNAR: AKVDQTPRTTTKETGESLTINCVLTETSYGLSSTSWFQKNPGTTDWERMSIGGRYVESVNTGAKSFSLRIKDLTVADSATYYCKAHAGYGVWNRGLQWRGYDQYDGAGTVLTVN
notes: as for B9

- binding result (human serum albumin [2]): binds
B16: SEQ ID NO 58 (VNAR)
VNAR: TRVDQTPRTATKETGESLTINCVLTDTSYPLYSTYWYRKNPGSSNKEQISISGRYVESVNKGTKSFSLRIKDLTVADSATYICRAYTPGREDYGAGTVLTVN
notes: as for B9

- binding result (human serum albumin [2]): binds
B17: SEQ ID NO 60 (VNAR)
VNAR: ASVNQTPRTATKETGESLTINCVLTGTSCSLYSTSWFRKNPGTTDWERISIGGRYVESVNKGAKSFSLRIKDLTVADSATYYCKAEKGRKGSAITSCRRSSYYDGAGTVLTVN
notes: as for B9

Second part, the binder before the results:

B1: SEQ ID NO 33 (VNAR)
VNAR: B10 VNAR with G79A, S85A, I86M, T87G, H89D, S92T, A99V
notes: clone name not tied to this number
- binding result (human serum albumin [1]): binds

B2: SEQ ID NO 35 (VNAR)
VNAR: B10 VNAR with A1T, G79A, S85A, I86M, T87G, H89N, S92T
notes: as for B1
- binding result (human serum albumin [1]): binds

B3: SEQ ID NO 38 (VNAR)
VNAR: B10 VNAR with A1T, S33R, G79A, S85A, I86M, T87G, H89D, S92T, A99V
notes: as for B1
- binding result (human serum albumin [1]): binds

B4: SEQ ID NO 39 (VNAR)
VNAR: B10 VNAR with A1T, Q48R, G79A, S85A, I86M, T87G, H89D, S92T, A99V
notes: as for B1
- binding result (human serum albumin [1]): binds

B5: SEQ ID NO 40 (VNAR)
VNAR: B10 VNAR with A1T, Q48R, G79A, S85A, I86M, T87G, H89N, S92T
notes: as for B1
- binding result (human serum albumin [1]): binds

B6: SEQ ID NO 53 (VNAR)
VNAR: B10 VNAR with G79A, S85A, H89D, S92T, G93S
notes: as for B9
- binding result (human serum albumin [2]): binds

B7: SEQ ID NO 55 (VNAR)
VNAR: B10 VNAR with S44P, Q48R, G79A, S85A, I86M, T87G, T88A, H89N, S92T
notes: as for B9
- binding result (human serum albumin [2]): binds

B8: SEQ ID NO 56 (VNAR)
VNAR: B12 VNAR with T27A, D87G, S89N, A90G, G91W, V92T, V93G
notes: as for B9
- binding result (human serum albumin [2]): binds

Source: patent US11692025 (UNIVERSITY COURT OF THE UNIVERSITY OF ABERDEEN, dated 2023)
